These results are taken from article PMC8383118.

The target of test [1] is fluorescently labeled S. mutans XIP (dansyl-GLDWWSL) (Streptococcus mutans). Briefly: other fluorescence titration; 0.2 μM dansyl-XIP with increasing ComR, 1 h, room temperature, dark; 20 mM HEPES pH 7.5, 100 mM NaCl, 1 mM β-ME; dansyl emission intensity.
Test [2] concerns the target ComR S. mutans, full length (Streptococcus mutans).
In test [3] the target is ComR:dansyl-XIP complex (Streptococcus mutans). Nature of the test: fluorescence polarisation; steady-state fluorescence anisotropy of 0.2 μM dansyl-XIP with 0.5 μM ComR and increasing Prx, 1 h, room temperature; 20 mM HEPES pH 7.5, 100 mM NaCl, 1 mM β-ME. (In general: Fluorescence polarisation rises when a labelled molecule tumbles more slowly, as on binding a larger partner.)

For test [4], the target named is ComR S. mutans DNA-binding domain (DBD) construct (Streptococcus mutans). Briefly: ITC; 300 μM Prx (or PrxD32A) injected into 20 μM ComR S. mutans or DBD, 25 °C, gel filtration buffer (20 mM Tris-HCl pH 7.5, 100 mM NaCl, 1 mM β-ME); one site model. In general terms: ITC needs no label: the signal is the heat of the interaction.
Test [5] deals with ComR S. mutans, full length (Streptococcus mutans). The test is described as above.

For ComR S. mutans, full length (receptor), the Kd – broadly, the free concentration of one partner at which half of the binding sites on the other are occupied at equilibrium, for simple one-to-one binding – in test [1] is 320 nM.

B1: paratox (Prx) from S. pyogenes MGAS315 (natural protein)
chain: MLTYDEFKQAIDRGYITADTVMIVRKNGQIFDYVLPNEKIKNGEIVTDEKVEEVLVELSR
For B1, in test [2], the EMSA: Prx needed for complete inhibition (no DNA band shift) of 4 μM ComR with 8 μM XIP and FAM-labeled comS promoter probe; Prx added with or before XIP (apo-ComR) turned out to be 6 µM; the EMSA: Prx needed for complete inhibition (no DNA band shift) when added after the ComR:XIP:DNA complex was allowed to form (activated ComR) was 2 µM. The Kd in test [3] came out at 700 nM. Moreover, in test [4], the Kd stood at 50 nM; the dH is -20.8 kcal/mol; the stoichiometry N (as a rule, a count of units in the complex or per binding partner) was found to be 1. In addition, in test [5], the Kd came out at 390 nM, the dH is -11.8 kcal/mol and the stoichiometry N is 1.
